Data from publication PMC7339583 (Alzheimer's Research & Therapy, 2020).
Values joined by “and” are separate entries in the source; they are usually repeats but may differ in a detail not shown here. Equal values may be shown once. “Also recorded” adds a separate entry of the source.

Assays:
CatD [1] = target: T1, CatD (Homo sapiens, UniProt P07339); test: Competitive inhibition of CatD activity, fluorogenic substrate (fluorescence dequenching); type: biochemical; settings: mean ± SEM of 4–8 replicates (Fig. 4f)
T1 construct: purchased Enzo Life Sciences
Description: To address this, we tested the extent to which different peptides at identical concentrations inhibited CatD activity monitored with a fluorogenic substrate.
For the determination of the pH dependence of Aβ degradation in soluble brain extracts, freshly harvested brain tissue from 15-day-old mice was dissociated in 20 mM Tris-HCl, pH 7.4 at 4 °C using a Dounce homogenizer, then centrifuged at 1000×g. The resulting supernatant was diluted 1:20 in Britton-Robinson buffers of different pHs, and CatD activity was quantified either using a well-characterized fluorescence polarization-based Aβ degradation assay as described or by monitoring hydrolysis of the CatD-specific fluorogenic substrate, Mca-[…]-Dnp. Kinetic experiments were conducted using freshly prepared, monomeric Aβ peptides separated from aggregated species by size-exclusion chromatography (SEC) and characterized as described. Aβ peptides and PepA were diluted in neutral Dilution Buffer (20 mM Tris, pH 8.0 supplemented with 0.1% BSA), with addition of DMSO as appropriate, and reactions were initiated by transfer into Assay Buffer (60 mM Na-citrate; 80 mM Na2HPO4, pH 4.0; Sigma) supplemented with purified human CatD (Enzo Life Sciences). Where required, reactions were terminated by adjustment to neutral pH with 10× Stop Buffer (0.2 M Tris-HCL, pH 9.5 supplemented with 10 μM PepA). […] Competitive inhibition experiments were conducted using either ELISAs, an Aβ-degradation assay or the fluorogenic substrate.

[2] = target: Cathepsin D (purified human CatD, Enzo Life Sciences) (human) (UniProt P07339)
[3] = target: T2, insulin-degrading enzyme (IDE) (Mus musculus, UniProt Q9JHR7); test: Aβ-degrading activity in soluble brain extracts at neutral pH; type: biochemical; settings: 15-day-old mice; excess insulin; pH 7.5 to 9.5
T2 construct: freshly harvested brain tissue from 15-day-old mice was dissociated in 20 mM Tris-HCl, pH 7.4; from tissue; host or cells: mouse brain, soluble extract (15-day-old mice)
Excerpt: (§1) As an initial step towards elucidating the role of CatD in Aβ proteostasis, we quantified rates of Aβ degradation in vitro in soluble brain extracts from CatD-KO mice and wild-type controls as a function of pH, focusing on extracts from 15-day-old mice, due to the premature lethality of CatD-KO mice that occurs by ~ 4 weeks of age. Consistent with previous results, Aβ-degrading activity was present principally within two pH ranges: at neutral pH (pH 7.5 to 9.5) and—to a considerably larger extent—also at acidic pH (pH 2.5 to 4.5) (Fig. 1a). The Aβ-degrading activity at neutral pH was inhibited by excess insulin and reflects the activity of the neutral protease insulin-degrading enzyme (IDE), as shown previously by McDermott and Gibson. […] To extend and confirm these findings, we quantified Aβ degradation at pH 4.0 in soluble brain extracts from CatD-KO and WT mice, as well as heterozygous null (CatD-HET) mice (Fig. 1b). […] Consistent with this, levels of both preprocathepsin D and mature CatD protein in the CatD-HET animals were also determined to be > 50% of WT levels (Fig. 1c, d), with mature CatD protein being reduced by only 26.0 ± 14.2% relative to WT controls (p > 0.05; Fig. 1d). […]

CatD [4] = target: T3, CatD (Mus musculus, UniProt P18242); test: Aβ-degrading activity in soluble brain extracts at pH 4.0; type: biochemical; settings: 15-day-old mice, 4 replicates
T3 construct: freshly harvested brain tissue from 15-day-old mice was dissociated in 20 mM Tris-HCl, pH 7.4; from tissue; host or cells: mouse brain, soluble extract (15-day-old WT and CatD-HET mice)
Excerpt: as §1

T1 sequence (P07339 65-412): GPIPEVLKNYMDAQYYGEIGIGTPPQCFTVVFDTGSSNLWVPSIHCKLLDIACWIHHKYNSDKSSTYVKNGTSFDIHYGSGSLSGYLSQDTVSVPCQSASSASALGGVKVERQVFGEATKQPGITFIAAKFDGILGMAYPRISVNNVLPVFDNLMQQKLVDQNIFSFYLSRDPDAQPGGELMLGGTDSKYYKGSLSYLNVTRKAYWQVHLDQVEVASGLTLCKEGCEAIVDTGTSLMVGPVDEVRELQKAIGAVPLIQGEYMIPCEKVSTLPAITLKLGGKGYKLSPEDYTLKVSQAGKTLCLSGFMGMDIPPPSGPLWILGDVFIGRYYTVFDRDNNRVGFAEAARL
T3 sequence (P18242 65-410): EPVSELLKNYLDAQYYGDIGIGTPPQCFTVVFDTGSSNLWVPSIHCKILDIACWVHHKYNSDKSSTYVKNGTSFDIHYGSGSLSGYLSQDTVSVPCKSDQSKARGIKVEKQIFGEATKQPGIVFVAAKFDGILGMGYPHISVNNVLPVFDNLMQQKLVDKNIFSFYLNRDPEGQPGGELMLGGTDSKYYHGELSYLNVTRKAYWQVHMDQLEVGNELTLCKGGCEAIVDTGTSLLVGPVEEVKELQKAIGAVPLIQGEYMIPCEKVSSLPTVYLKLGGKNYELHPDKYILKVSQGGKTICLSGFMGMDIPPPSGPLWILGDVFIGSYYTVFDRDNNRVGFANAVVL
T2 sequence (Q9JHR7 whole entry): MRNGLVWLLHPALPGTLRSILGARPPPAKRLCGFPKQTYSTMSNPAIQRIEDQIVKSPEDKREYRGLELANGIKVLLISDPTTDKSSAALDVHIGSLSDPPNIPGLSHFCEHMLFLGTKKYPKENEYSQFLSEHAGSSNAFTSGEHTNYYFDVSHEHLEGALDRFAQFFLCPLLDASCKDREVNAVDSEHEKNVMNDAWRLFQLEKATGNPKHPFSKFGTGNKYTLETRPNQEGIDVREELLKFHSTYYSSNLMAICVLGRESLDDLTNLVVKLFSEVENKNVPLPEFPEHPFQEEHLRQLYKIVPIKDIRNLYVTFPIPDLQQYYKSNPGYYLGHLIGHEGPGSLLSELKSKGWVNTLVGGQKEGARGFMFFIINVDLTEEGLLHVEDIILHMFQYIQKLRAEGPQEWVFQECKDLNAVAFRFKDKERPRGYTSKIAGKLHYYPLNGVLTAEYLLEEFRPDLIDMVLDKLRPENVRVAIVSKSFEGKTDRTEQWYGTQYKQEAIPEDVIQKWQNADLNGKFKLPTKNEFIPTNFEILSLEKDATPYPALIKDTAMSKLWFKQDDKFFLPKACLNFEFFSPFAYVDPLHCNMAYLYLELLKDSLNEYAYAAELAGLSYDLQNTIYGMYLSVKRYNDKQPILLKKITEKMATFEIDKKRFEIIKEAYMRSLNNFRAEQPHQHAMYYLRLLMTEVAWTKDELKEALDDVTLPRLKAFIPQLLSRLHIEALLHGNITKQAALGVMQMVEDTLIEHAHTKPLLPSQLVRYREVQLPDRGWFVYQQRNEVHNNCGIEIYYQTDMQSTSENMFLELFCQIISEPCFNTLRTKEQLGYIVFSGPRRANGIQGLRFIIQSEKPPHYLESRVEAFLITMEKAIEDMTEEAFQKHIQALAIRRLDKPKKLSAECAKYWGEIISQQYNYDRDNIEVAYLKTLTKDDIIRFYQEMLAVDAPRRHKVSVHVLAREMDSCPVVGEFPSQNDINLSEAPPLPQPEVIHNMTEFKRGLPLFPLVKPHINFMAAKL

Substance	inhibition of CatD activity at 1 μM peptide (CatD [1])	other results
Aβ(33–40): C-terminal fragment corresponding to Aβ(33–42), ending at position 40 (GLMVGGVV; Amyloid-beta protein 40; UniProt P05067 704-711, looked up, fragment)	modest but statistically significant inhibition	
full-length murine Aβ (mAβ(1–42)) (from UniProt P12023 672-713) (peptide)		inhibition of CatD activity (fluorogenic substrate) by 1 μM peptide [2]: > 90%
insulin		inhibition of Aβ-degrading activity at neutral pH in brain extracts [3]: inhibited
pepstatin A		inhibition of Aβ-degrading activity in WT and CatD-HET brain extracts (CatD [4]): largely inhibited; also recorded: inhibited almost completely

Second part, led by results:

inhibition of CatD activity at 1 μM peptide (CatD [1])	Substance	other results
strongly inhibited and > 90%	Aβ(17–42): α-secretase-derived p3 fragment of APP ending at position 42 (LVFFAEDVGSNKGAIIGLMVGGVVIA; Amyloid-beta protein 42; UniProt P05067 688-713, looked up, fragment)	
failed to inhibit significantly	Aβ(33–42): short C-terminal fragment of Aβ42 (GLMVGGVVIA; Amyloid-beta protein 42; UniProt P05067 704-713, looked up, fragment)	
> 90%	rodent Aβ42: full-length murine Aβ ending at position 42 (DAEFGHDSGFEVRHQKLVFFAEDVGSNKGAIIGLMVGGVVIA)	inhibition of CatD activity at 1 μM peptide (CatD [1]; listed as mAβ(1–42)): strongly inhibited
